Article PMC13193609, “Polyphosphate modulates the stress-responsive formation of functional RNA-protein condensates in bacteria and mammalian cells”

Target: Hfq (Escherichia coli, UniProt P0A6X3 1-102)
Assay: EMSA; 25 uM Hfq with 0.5-4 uM FAM-rA30, no polyP; Condensates: 20 mM HEPES pH 7.0, 50 mM NaCl, no crowder; EMSA buffer and temperature not given in the material
Details: protein: recombinant; chain copies: 6; label: FAM (5' as printed FAM-(rA)30); single strand

Sequence of Hfq (P0A6X3 whole entry): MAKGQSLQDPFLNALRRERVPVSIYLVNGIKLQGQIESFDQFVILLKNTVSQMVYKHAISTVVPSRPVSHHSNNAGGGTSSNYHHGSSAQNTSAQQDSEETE

B1: FAM-rA30 (ssRNA)
RNA: AAAAAAAAAAAAAAAAAAAAAAAAAAAAAA
B1: binds.
